The source of these data is article PMC6364671.

The target in the experiment is recombinant human CD74 (C27S) (human) (UniProt P04233). Briefly: ELISA. (In general: ELISA stands for enzyme-linked immunosorbent assay.)

One may read the IC50 as the point on the concentration scale where inhibition reaches its midpoint. Take “DRα1-hMOG-35-55 (from UniProt P01903 15-97)”: the IC50 is 1640 nM. Under DRα1-mMOG-35-55 stands 937 nM.
